The target of the assay is human ROR1 (tyrosine-protein kinase transmembrane receptor ROR1) (human), Q01973. Description: cell-based or functional assay.
Chain of human ROR1 (tyrosine-protein kinase transmembrane receptor ROR1) (human), Q01973 (Q01973 30-937): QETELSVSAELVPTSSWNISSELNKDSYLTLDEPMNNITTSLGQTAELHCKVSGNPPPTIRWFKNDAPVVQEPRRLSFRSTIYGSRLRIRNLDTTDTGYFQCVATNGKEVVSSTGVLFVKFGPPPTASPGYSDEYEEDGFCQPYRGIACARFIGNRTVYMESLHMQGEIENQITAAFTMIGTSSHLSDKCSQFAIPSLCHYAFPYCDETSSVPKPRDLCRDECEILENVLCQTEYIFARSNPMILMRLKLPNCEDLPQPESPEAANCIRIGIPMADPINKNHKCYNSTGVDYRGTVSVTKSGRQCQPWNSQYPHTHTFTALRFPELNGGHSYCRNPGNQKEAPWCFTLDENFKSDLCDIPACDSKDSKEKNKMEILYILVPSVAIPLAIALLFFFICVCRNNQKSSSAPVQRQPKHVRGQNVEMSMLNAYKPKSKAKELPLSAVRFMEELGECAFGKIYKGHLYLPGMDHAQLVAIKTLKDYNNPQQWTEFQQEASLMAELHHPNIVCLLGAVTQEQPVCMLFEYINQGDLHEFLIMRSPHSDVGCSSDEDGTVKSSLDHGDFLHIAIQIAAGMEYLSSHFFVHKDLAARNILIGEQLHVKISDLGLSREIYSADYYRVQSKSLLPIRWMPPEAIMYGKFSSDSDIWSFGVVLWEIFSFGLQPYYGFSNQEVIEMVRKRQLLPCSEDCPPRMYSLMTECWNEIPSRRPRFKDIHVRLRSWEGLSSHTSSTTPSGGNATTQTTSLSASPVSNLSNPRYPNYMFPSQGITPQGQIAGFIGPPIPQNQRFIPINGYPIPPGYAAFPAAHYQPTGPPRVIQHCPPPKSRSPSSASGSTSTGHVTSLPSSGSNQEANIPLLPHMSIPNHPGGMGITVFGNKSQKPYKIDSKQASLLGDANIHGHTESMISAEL

B1: R12 CAR with Spacer 15 (protein)
chain: QEQLVESGGRLVTPGGSLTLSCKASGFDFSAYYMSWVRQAPGKGLEWIATIYPSSGKTYYATWVNGRFTISSDNAQNTVDLQMNSLTAADRATYFCARDSYADDGALFNIWGPGTLVTISSGGGGSGGGGSGGGGSELVLTQSPSVSAALGSPAKITCTLSSAHKTDTIDWYQQLQGEAPRYLMQVQSDGSYTKRPGVPDRFSGSSSGADRYLIIPSVQADDEADYYCGADYIGGYVFGGGTQLTVTGGGGSGPPKPKDTMFWVLVVVGGVLACYSLLVTVAFIIFWVKRGRKKLLYIFKQPFMRPVQTTQEEDGCSCRFPEEEEGGCELRVKFSRSADAPAYQQGQNQLYNELNLGRREEYDVLDKRRGRDPEMGGKPRRKNPQEGLYNELQKDKMAEAYSEIGMKGERRRGKGHDGLYQGLSTATKDTYDALHMQALPPR
B1 returned an A549 IFNg, donor 2735 of 13800; an A549 IFNg, donor 5018 of 7610; an A549 IL-2, donor 2735 of 8; an A549 IL-2, donor 5018 of 9. For the same molecule, the A549 normalized AUC, donor 2735 was 64; the A549 normalized AUC, donor 5018 is 81.2; the H1975 IFNg, donor 2735 was 16900; the H1975 IFNg, donor 5018 amounted to 4320. This molecule also showed an H1975 IL-2, donor 2735 of 17; an H1975 IL-2, donor 5018 of 10; an H1975 normalized AUC, donor 2735 of 63; an H1975 normalized AUC, donor 5018 of 75.

B2: R12 CAR with Spacer 21 (protein)
chain: QEQLVESGGRLVTPGGSLTLSCKASGFDFSAYYMSWVRQAPGKGLEWIATIYPSSGKTYYATWVNGRFTISSDNAQNTVDLQMNSLTAADRATYFCARDSYADDGALFNIWGPGTLVTISSGGGGSGGGGSGGGGSELVLTQSPSVSAALGSPAKITCTLSSAHKTDTIDWYQQLQGEAPRYLMQVQSDGSYTKRPGVPDRFSGSSSGADRYLIIPSVQADDEADYYCGADYIGGYVFGGGTQLTVTGGGGSGVPCPVPPMFWVLVVVGGVLACYSLLVTVAFIIFWVKRGRKKLLYIFKQPFMRPVQTTQEEDGCSCRFPEEEEGGCELRVKFSRSADAPAYQQGQNQLYNELNLGRREEYDVLDKRRGRDPEMGGKPRRKNPQEGLYNELQKDKMAEAYSEIGMKGERRRGKGHDGLYQGLSTATKDTYDALHMQALPPR
In turn, B2 yielded an A549 IFNg, donor 2735 of 14100; an A549 IFNg, donor 5018 of 5000; an A549 IL-2, donor 2735 of 7; an A549 IL-2, donor 5018 of 8. This molecule also displayed an A549 normalized AUC, donor 2735 of 66.3; an A549 normalized AUC, donor 5018 of 85; an H1975 IFNg, donor 2735 of 23200; an H1975 IFNg, donor 5018 of 2650. Moreover, the H1975 IL-2, donor 2735 came out at 26; the H1975 IL-2, donor 5018 was 7; the H1975 normalized AUC, donor 2735 was determined as 61.5; the H1975 normalized AUC, donor 5018 was 77.4.

The record behind these values is patent US20260098075A1.
